Reference: patent US20090081197A1 (PALATIN TECHNOLOGIES, published 2009)
Where two headings read alike, the source gives them in different places. Starred links: 1 amine or outer side, 2 acyl side, 3 side chain; linkers in the order of their positions; H or OH if unused. Non-standard residues stand in square brackets, D forms with d. No end group written: not given here. *: point of attachment. Thr(Bzl) = O-benzyl-threonine, C[C@@H](OCc1ccccc1)[C@H](N[*:1])C(=O)[*:2]; Ser(Bzl) = O-benzyl-serine, O=C([C@H](COCc1ccccc1)N[*:1])[*:2]; dPhe(4-Cl) = N[C@H](Cc1ccc(Cl)cc1)C(=O)O; Heptanoyl = CCCCCCC(=O)*; Ahp = NCCCCCCC(=O)O

B1: Heptanoyl-Thr(Bzl)-D-Phe(4-Cl)-Arg-Trp-NH2 (peptide)
peptide: Heptanoyl-[Thr(Bzl)][dPhe(4-Cl)]RW-NH2
SMILES: CCCCCCC(=O)N[C@H](C(=O)N[C@H](Cc1ccc(Cl)cc1)C(=O)N[C@@H](CCCNC(=N)N)C(=O)N[C@@H](Cc1c[nH]c2ccccc12)C(N)=O)[C@@H](C)OCc1ccccc1
notes: also called Compound No. 23
B2: NH2-(CH2)6-C(=O)-Ser(Bzl)-D-Phe(4-Cl)-Arg-Trp-Ala-NH2 (peptide)
peptide: [Ahp][Ser(Bzl)][dPhe(4-Cl)]RWA-NH2
modifications: N-terminus assumed
SMILES: C[C@H](NC(=O)[C@H](Cc1c[nH]c2ccccc12)NC(=O)[C@H](CCCNC(=N)N)NC(=O)[C@@H](Cc1ccc(Cl)cc1)NC(=O)[C@H](COCc1ccccc1)NC(=O)CCCCCCN)C(N)=O
notes: also called Compound No. 15

Key:
[1] = target: T1, human melanocortin 5 receptor (human, UniProt P33032 1-325); assay: radioligand competition, [I125]-NDP-α-MSH, hMC5-R membranes
T1 construct: whole, on cells; also called hMC5-R; MC5-R
T1 sequence (P33032 whole entry): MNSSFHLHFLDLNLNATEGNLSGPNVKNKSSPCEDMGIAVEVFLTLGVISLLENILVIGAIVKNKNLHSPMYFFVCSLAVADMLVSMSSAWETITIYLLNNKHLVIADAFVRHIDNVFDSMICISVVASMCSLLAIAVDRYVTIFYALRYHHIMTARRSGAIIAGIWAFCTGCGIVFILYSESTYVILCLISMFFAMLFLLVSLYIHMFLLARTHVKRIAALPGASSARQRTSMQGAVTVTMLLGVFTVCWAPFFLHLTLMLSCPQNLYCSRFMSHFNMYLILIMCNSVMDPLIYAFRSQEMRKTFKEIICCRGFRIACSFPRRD

[2] = target: T2, human melanocortin 4 receptor (human, UniProt P32245 1-332); assay: cell-based or functional assay
T2 sequence (P32245 whole entry): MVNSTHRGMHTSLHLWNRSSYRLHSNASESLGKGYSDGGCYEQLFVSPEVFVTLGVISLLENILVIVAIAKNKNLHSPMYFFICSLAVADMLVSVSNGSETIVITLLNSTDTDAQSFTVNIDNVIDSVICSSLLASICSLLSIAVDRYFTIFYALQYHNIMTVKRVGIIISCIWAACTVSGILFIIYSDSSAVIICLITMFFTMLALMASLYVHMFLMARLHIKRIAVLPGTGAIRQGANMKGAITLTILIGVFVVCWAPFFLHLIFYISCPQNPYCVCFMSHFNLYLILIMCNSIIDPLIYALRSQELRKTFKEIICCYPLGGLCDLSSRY

[3] = target: T2, human melanocortin 4 receptor; assay: cell-based or functional assay; remark: listed apart in the source
[4] = target: T2, human melanocortin 4 receptor; assay: radioligand competition, [I125]-NDP-α-MSH, hMC4-R membranes
[5] = target: T3, human melanocortin 3 receptor (human, UniProt P41968 1-323); assay: radioligand competition, [I125]-NDP-α-MSH, hMC3-R membranes
T3 construct: whole, on cells; also called hMC3-R; MC3-R
T3 sequence (P41968 whole entry): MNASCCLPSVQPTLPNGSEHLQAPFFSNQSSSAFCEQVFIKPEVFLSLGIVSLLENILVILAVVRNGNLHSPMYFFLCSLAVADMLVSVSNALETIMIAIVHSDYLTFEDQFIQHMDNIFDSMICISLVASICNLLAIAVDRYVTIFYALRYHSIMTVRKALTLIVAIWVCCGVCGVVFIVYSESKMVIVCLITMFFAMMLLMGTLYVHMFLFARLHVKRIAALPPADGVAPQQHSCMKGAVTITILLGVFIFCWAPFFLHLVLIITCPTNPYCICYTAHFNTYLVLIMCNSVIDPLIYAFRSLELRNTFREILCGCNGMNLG

[6] = target: T4, MC1-R of B-16 mouse melanoma cells (mouse, UniProt Q01727 1-315); assay: radioligand competition, [I125]-NDP-α-MSH, B-16 membranes
T4 construct: whole, on cells; also called B16-F10 (MC1-R)
T4 sequence (Q01727 whole entry): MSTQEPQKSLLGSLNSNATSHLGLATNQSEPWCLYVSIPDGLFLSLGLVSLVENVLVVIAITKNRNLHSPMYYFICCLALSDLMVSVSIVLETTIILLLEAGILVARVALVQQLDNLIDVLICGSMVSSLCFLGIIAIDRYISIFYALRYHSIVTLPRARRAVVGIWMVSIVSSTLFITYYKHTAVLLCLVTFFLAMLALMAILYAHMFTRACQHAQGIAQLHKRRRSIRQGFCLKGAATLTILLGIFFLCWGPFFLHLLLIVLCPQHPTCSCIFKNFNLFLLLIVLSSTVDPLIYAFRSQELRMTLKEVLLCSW

[7] = target: T1, human melanocortin 5 receptor; assay: radioligand competition, [I125]-NDP-α-MSH, hMC5-R membranes; remark: listed apart in the source
[8] = target: T2, human melanocortin 4 receptor; assay: radioligand competition, [I125]-NDP-α-MSH, hMC4-R membranes; remark: listed apart in the source
[9] = target: T3, human melanocortin 3 receptor; assay: radioligand competition, [I125]-NDP-α-MSH, hMC3-R membranes; remark: listed apart in the source
[10] = target: T2, human melanocortin 4 receptor; assay: cell-based or functional assay; remark: listed apart in the source
[11] = target: T4, MC1-R of B-16 mouse melanoma cells; assay: radioligand competition, [I125]-NDP-α-MSH, B-16 membranes; remark: listed apart in the source

Binder | Ki [1] [nM] | EC50 (nM) (cAMP), High Receptor Density System [2] | EC50 (nM), normal system (cAMP) [3] [nM] | intrinsic activity, normal system (cAMP) [3] | Ki [4] [nM] | Ki [5] [nM] | Ki [6] [nM] | Ki [7] [nM] | Ki [8] [nM] | EC50, normal system (cAMP) [3] [nM] | Ki [9] [nM] | EC50 (nM) (cAMP), High Receptor Density System [10] | Ki [11] [nM]
B1 | 292 | 184 | > 1000 | 0.4 | 21 | 374 | 747 | – | – | – | – | – | –
B2 | – | – | – | < 0.1 | – | – | – | 112 | 2 | > 1000 | 35 | 55 | 142
